Source: patent publication US6828106B2, “Methods and compositions using coiled binding partners” (Cyclacel Limited, priority 1999, dated 2004)

Assays:
TEV protease [1] = biological target: T1, TEV protease (Tobacco etch virus, UniProt P04517); experiment: TEV protease FRET assay with homodimer-forming reporter peptide; assay type: biochemical; settings: substrate: fluorescein/rhodamine-labeled reporter peptide homodimer; FIG. 8; read-out: Km of TEV protease by FRET analysis
T1 construct: Proteolytic cleavage was initiated by the addition of TEV protease (20U, Gibco Life Technologies); histidine tag; purchased Gibco Life Technologies
Method: (§1) TEV protease activity and inhibition of TEV protease activity was determined by using a peptide capable of forming a homodimer, wherein homodimer formation is decreased following TEV protease cleavage of the peptide, according to the following method.
For FRET analysis the reporter peptide (KGR MRCLEDR VENLYSQ SYHLENE VARLRRL VGELAAK) (SEQ ID NO: 32) was labeled with fluorescein or rhodamine. The labeled peptides were incubated at a total peptide concentration of 6 μM (6:1 ratio, R:F) in 50 mM Tris pH 8, and 0.5 mM EDTA, and 1 mM DTT at 30° C. for 15 minutes in a total volume of 100 μl. Proteolytic cleavage was initiated by the addition of TEV protease (20U, Gibco Life Technologies), and monitored during the time course of the reaction by measuring the emission of fluorescein (excitation 485 nm, emission 520 nm) over time. Initial rates of change of fluorescein emission were determined for the linear portion of the reaction.
(§2) The activity of the TEV protease inhibitor iodacetamide was determined by FRET or FP assays performed as described above in the absence of iodacetamide or in the presence of 0.05-100 mM iodacetamide added prior to the addition of TEV protease. The results of these experiments are presented in FIG. 9 (FRET assay) and FIG. 11 (FP assay).

TEV protease [2] = biological target: T1, TEV protease; experiment: TEV protease FP assay with homodimer-forming reporter peptide; assay type: biochemical; settings: substrate: fluorescein/biotin-labeled reporter peptide homodimer; FIG. 10; read-out: Km of TEV protease by FP analysis
Method: as §1
For FP analysis the reporter peptide (sequence recited above) was labeled with fluorescein or with biotin. The labeled peptides were incubated at a total peptide concentration of 6 μM (6:1 ratio, biotin:F) in 50 mM Tris, pH 8, 0.5 mM EDTA, 0.1 mg/ml BSA and 1 mM DTT at 30° C. for 5 minutes in a total volume of 100 μl. Proteolytic cleavage was initiated by the addition of TEV protease (20U), and monitored during the reaction time course by measuring the polarization of fluorescein (excitation 485 nm, emission 520 nm) over time. Initial rates of change of fluorescein polarization were determined for the linear portion of the reaction.
as §2

B1: TEV protease: Tobacco Etch Virus protease, Gibco Life Technologies (protein)
chain: GESLFKGPRDYNPISSTICHLTNESDGHTTSLYGIGFGPFIITNKHLFRRNNGTLLVQSLHGVFKVKNTTTLQQHLIDGRDMIIIRMPKDFPPFPQKLKFREPQREERICLVTTNFQTKSMSSMVSDTSCTFPSSDGIFWKHWIQTKDGQCGSPLVSTRDGFIVGIHSASNFTNTNNYFTSVPKNFMELLTNQEAQQWVSGWRLNADSVLWGGHKVFMSKPEEPFQPVKEATQLMNELVYSQ
Km (TEV protease [1]): 36 µM | Km (TEV protease [2]): 36 µM
